These results are taken from paper PMC5839991 (Nature structural & molecular biology, 2018).

Assay [1] concerns the target recombinant human serum albumin from S. cerevisiae, biotin labeled (Homo sapiens, UniProt P02768, biotin (EZ-Link NHS-PEG4-Biotin)). Kind of assay: SPR. Background: In SPR one partner is held on a chip, and binding of the other changes the refractive index at the surface.
In assay [2] the target is mouse serum albumin, biotin labeled (Mus musculus, UniProt P07724, biotin (EZ-Link NHS-PEG4-Biotin)). Kind of assay: SPR.
mouse serum albumin, biotin labeled, sequence (P07724 25-608): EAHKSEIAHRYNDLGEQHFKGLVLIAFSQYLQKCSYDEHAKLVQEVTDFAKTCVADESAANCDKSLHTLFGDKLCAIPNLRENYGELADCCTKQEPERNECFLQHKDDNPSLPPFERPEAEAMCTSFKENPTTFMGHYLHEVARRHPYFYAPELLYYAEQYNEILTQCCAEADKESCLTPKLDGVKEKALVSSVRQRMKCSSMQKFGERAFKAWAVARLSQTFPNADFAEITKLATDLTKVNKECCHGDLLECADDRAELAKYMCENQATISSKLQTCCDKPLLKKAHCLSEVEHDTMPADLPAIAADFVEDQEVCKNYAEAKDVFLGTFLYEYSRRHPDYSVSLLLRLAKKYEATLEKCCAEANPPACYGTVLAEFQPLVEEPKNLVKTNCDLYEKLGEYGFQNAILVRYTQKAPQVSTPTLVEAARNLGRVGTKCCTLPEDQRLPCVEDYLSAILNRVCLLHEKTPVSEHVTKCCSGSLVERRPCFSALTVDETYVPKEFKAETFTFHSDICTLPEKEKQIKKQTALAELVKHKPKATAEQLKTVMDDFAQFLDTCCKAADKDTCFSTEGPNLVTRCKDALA

B1: Nb.b201 (VHH)
VHH: QVQLQESGGGLVQAGGSLRLSCAASGYISDAYYMGWYRQAPGKEREFVATITHGTNTYYADSVKGRFTISRDNAKNTVYLQMNSLKPEDTAVYYCAVLETRSYSFRYWGQGTQVTVSS
Regarding B1, the Kd – broadly, the concentration at which binding is half-saturated – in assay [1] was determined as 430 nM. For the same molecule, the binding result in assay [2] is “no binding”.
